Data on 2 molecules can be found in publication PMC6448830 (2019).

Common to all, as to test: SPR
Background: In SPR one partner is held on a chip, and binding of the other changes the refractive index at the surface.

The target of assay [1] is T1, human 2B4-Fc fusion protein (human, UniProt Q9BZW8 22-229).
T1 chain: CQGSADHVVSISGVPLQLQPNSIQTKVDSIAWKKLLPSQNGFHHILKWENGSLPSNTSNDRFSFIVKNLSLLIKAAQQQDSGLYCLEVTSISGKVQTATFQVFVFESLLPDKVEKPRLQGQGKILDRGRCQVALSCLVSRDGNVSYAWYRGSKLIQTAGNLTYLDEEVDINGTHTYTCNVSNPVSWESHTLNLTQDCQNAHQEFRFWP

Assay [2] deals with T1, human 2B4-Fc fusion protein.
Assay [3] has as its target T2, A. trivirgatus 2B4-Fc fusion protein (Aotus trivirgatus).
T2 chain: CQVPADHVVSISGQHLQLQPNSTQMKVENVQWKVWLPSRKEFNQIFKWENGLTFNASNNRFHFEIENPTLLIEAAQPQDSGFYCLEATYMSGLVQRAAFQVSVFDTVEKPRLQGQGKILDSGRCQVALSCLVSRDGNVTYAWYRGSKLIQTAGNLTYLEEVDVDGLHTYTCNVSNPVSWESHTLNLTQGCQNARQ

Usually Kd stands for the constant that tells how readily two partners part at equilibrium. Read a high Kd as a looser complex. The term koff denotes a measure of how fast the partners let go of each other. A lower koff goes with slow dissociation.

B1: human CD48-Fc fusion protein (Fc fusion)
chain: QGHLVHMTVVSGSNVTLNISESLPENYKQLTWFYTFDQKIVEWDSRKSKYFESKFKGRVRLDPQSGALYISKVQKEDNSTYIMRVLKKTGNEQEWKIKLQVLDPVPKPVIKIEKIEDMDDNCYLKLSCVIPGESVNYTWYGDKRPFPKELQNSVLETTLMPHNYSRCYTCQVSNSVSSKNGTVCLSPPCTLARS
modifications: biotin (biotinylated hCD48-Fc in the blocking assays)
The molecule B1 showed a Kd in assay [1] of 23 nM. For the same molecule, in assay [2], the koff came to 0.0224 s⁻¹.

B2: A. trivirgatus CD48-Fc fusion protein (Fc fusion)
chain: TSIQGNSVDVINAISGGNVTLNISESLPENVREITWFCTYHQKIADWDVKRLKYFDNKFKGRVRLDYQSGALYISKIQKEDANIYIMRVLKETMYEQEWKIRLQVFDPVPKPDIKIEKTAKVEDDCYLKLSCVIPDESVNYTWYGDKEPFPKEFQSGVLETTLKSQDYSRCYTCQVSNPVSSKNDTVCFS
modifications: biotin (biotinylated host CD48-Fc in the blocking ELISA)
B2: the koff in assay [3] stood at 0.000489 s⁻¹.
